Assay results taken from patent US20220031842A1 (JIANGSU HENGRUI MEDICINE, published 2022).

T1: Fusion protein of LAG-3 extracellular region and mIgG2a Fc (human)
T1 construct: Limits of the signal peptide are marked only by lost underlining; also called LAG-3-mFc; LAG-3-mFc fusion protein
T1 chain: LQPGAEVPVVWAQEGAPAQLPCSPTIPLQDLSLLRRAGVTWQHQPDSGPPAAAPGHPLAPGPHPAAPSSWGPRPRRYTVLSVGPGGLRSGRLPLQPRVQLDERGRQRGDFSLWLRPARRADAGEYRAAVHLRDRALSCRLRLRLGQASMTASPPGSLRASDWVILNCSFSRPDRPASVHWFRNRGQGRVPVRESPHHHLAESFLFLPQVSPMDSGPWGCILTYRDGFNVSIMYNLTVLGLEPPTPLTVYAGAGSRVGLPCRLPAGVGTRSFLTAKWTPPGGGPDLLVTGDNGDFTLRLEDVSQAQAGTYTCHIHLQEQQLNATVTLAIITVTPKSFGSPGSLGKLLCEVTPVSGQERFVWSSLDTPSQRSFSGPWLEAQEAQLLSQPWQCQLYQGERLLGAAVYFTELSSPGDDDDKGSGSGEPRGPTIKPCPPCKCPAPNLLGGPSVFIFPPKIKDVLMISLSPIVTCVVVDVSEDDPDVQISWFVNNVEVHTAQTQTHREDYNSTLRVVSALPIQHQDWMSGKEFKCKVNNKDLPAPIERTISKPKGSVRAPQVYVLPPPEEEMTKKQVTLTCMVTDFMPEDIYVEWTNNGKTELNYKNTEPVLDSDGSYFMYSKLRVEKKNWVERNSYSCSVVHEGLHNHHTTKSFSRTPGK


Columns and labels:
[1] = target: T1, Fusion protein of LAG-3 extracellular …; assay: ELISA, LAG-3-mFc captured by anti-mouse Fc on plate (which fusion: inferred)
Text: The binding ability of anti-LAG-3 antibody to human LAG-3 protein was detected by ELISA assay. LAG-3 fusion protein with Fc or mFc tag was immobilized into 96-well microtiter plate by binding to anti-Fc or anti-mFc antibody coated on the microtiter plate, the strength of the signal after the addition of the antibody was used to determine the binding activity of the antibody to LAG-3, the specific experimental method is as follows.
The goat anti-human Fc antibody (Jackson Immuno Research, Cat No. 109-005-008) or goat anti-mouse Fc antibody (Sigma, Cat No. M3534-1ML) was diluted to a concentration of 2 μg/ml with PBS buffer at pH 7.4 (Sigma, Cat No. P4417-100TAB), and added to a 96-well plate at a volume of 50 μl/well and then, the plate was incubated in the incubator at 37° C. for 2 hours. After discarding the liquid, the plates were blocked with 200 μl/well of blocking solution containing 5% skim milk (Bright Dairy, skim milk powder) in PBS, and incubated in the incubator at 37° C. for 2.5 hours or overnight at 4° C. (16-18 hours). After blocking, the blocking solution was discarded and the plate was washed 5 times with PBST buffer (PH7.4 PBS containing 0.05% tween-20). LAG-3-Fc fusion protein (SEQ ID NO:3, produced in-house) or LAG-3-mFc fusion protein (SEQ ID NO: 4, produced in-house) was diluted with sample diluent (PH7.4 PBS containing 1% BSA) to 1 μg/ml and was added to each well, 50 μl/well. Then the plate was incubated in the incubator at 37° C. for 1 h or overnight at 4° C. After incubation, the reaction solution in the plate was discarded, and the plate was washed with PBST for 6 times, and then was added with 50 μl/well of various concentrations of antibodies to be tested (hybridoma purified antibody or humanized antibody) which have been diluted with sample diluent, and the plate was incubated at 37° C. for 1 h. The plates was washed 5 times with PBST after incubation, and was added with 100 μl/well of goat anti-mouse (Jackson Immuno Research, Cat No. 115-035-003) or goat anti-human secondary antibody (Jackson Immuno Research, Cat No. 109-035-003) labeled with HRP, diluted in sample diluent, and the plate was incubated at 37° C. for 1 h.

[2] = target: T2, Fusion protein of LAG-3 extracellular region and hIgG1 Fc (human); assay: competition: biotin-LAG-3-Fc binding to fixed Daudi cells, antibody titrated
T2 construct: Limits of the signal peptide are marked only by lost underlining; also called LAG-3-Fc; LAG-3-Fc fusion protein
Experimental: Daudi cells (human leukemia cells, purchased from the cell bank in Chinese Academy of Sciences) were seeded in 96-well plate with a density of 3×10⁵/well. After centrifugation at 1000 rpm, the supernatant was discarded and then the plate was fixed with 4% PFA for 30 min at room temperature. The plate was washed 4 times with PBS after discarding the fixed solution, and the plate was blocked with 200 μl/well of blocking solution containing 5% skim milk (Bright Dairy, skim milk powder) diluted in PBS, and incubated at 37° C. for 2.5 hours. After blocking, the blocking solution was discarded and the plate was washed 5 times with PBST buffer (pH7.4 PBS containing 0.05% tween-20), added with 50 μl/well mixture of biotin-labeled (Biotin labeling kit, Dojindo Chemical, Cat No. LK03) LAG-3-Fc fusion protein (produced in-house, SEQ ID NO: 3) and gradient concentrations of the antibody to be tested, wherein the biotin-labeled LAG-3-Fc fusion protein has been diluted with sample diluent (PH7.4 PBS containing 1% BSA) at a final concentration of 0.4 μg/ml, and pre-mixed for an hour, then the plate was incubated at 37° C. for 1 h. The reaction solution was discarded and the plate was washed 5 times with PBST after incubation, 50 μl/well of HRP-labeled Streptavidin (Sigma, Cat No. 52438) diluted with sample diluent was added, and the plate was incubated at 37° C. for 1 h. After washing the plate 5 times with PBST, 50 μl/well of TMB chromogenic substrate (KPL, Cat No. 52-00-03) was added to each well, and incubated at room temperature for 5-15 min, the reaction was stopped by the addition of 50 μl 1M H₂SO₄ to each well. The OD value at a wavelength of 450 nm was read on NOVOStar microplate reader, and then the activity of the LAG-3 antibody in blocking the binding of the antigen to Daudi cells was calculated.

| Binder | EC50 [1] | IC50 [2] |
| --- | --- | --- |
| Hu229-008 (antibody, human IgG4 S228P, kappa, V domains shown, Humanized mAb229) VH: QVQLVQSGSELKKPGASVKVSCKASGYTFTTSGMSWVRQAPGQGLKWMGWINTYSGVPTYADDFKGRFVFSLDTSVSTAYLQISSLKAEDTAVYYCARDNYDARDVYYYAMDYWGQGTTVTVSS VL: DIQMTQSPSSLSASVGDRVTITCRASENIYSNLAWYQQKPGKAPKLLIYAATNLADGVPSRFSGSGSGTDFTLTISSLQPEDFATYYCQHFWITPWTFGGGTKVEIKR | 506 pM |  |
| Hu229-012 (antibody, human IgG4 S228P, kappa, V domains shown, Humanized mAb229) VH: QVQLVQSGSELKKPGASVKVSCKASGYTFTTSGMSWVKQAPGQGLKWMGWINTYSGVPTYADDFKGRFVFSLDTSVSTAYLQISSLKAEDTATYYCARDNYDARDVYYYAMDYWGQGTTVTVSS VL: DIQMTQSPSSLSASVGDRVTITCRASENIYSNLAWYQQKPGKAPKLLIYAATNLADGVPSRFSGSGSGTDFTLTISSLQPEDFATYYCQHFWITPWTFGGGTKVEIKR | 268 pM |  |
| Hu303-011 (antibody, human IgG4 S228P, kappa, V domains shown, Humanized mAb303) VH: QVQLVQSGAEVKKPGASVKVSCKASGYTFTDYYMNWVRQAPGQRLEWMGVINPYNGDTAYNQKFKGRVTITVDKSASTAYMELSSLRSEDTAVYYCTRDDGYYDYYFDVWGQGTTVTVSS VL: DIQMTQSPSSLSASVGDRVTITCRASQDIGSRLNWYQQKPGKAPKRLIYATSTLDSGVPKRFSGSRSGTDFTLTISSLQPEDFATYYCLQLASSPPTFGGGTKVEIKR | 314 pM | 728 pM |
| Hu303-019 (antibody, human IgG4 S228P, kappa, V domains shown, Humanized mAb303) VH: QVQLVQSGAEVKKPGASVKVSCKASGYTLTDYYMNWVRQAPGQRLEWIGVINPYNGDTAYNQKFKGRATLTVDKSASTAYMELSSLRSEDTAVYYCTRDDGYYDYYFDVWGQGTTVTVSS VL: DIQMTQSPSSLSASVGDRVTITCRASQDIGSRLNWYQQKPGKAPKLLIYATSTLDSGVPSRFSGSGSGTDFTLTISSLQPEDFATYYCLQLASSPPTFGGGTKVEIKR | 277 pM | 471 pM |
| Hu303-013 (antibody, human IgG4 S228P, kappa, V domains shown, Humanized mAb303) VH: QVQLVQSGAEVKKPGASVKVSCKASGYTFTDYYMNWVRQAPGQRLEWMGVINPYNGDTAYNQKFKGRVTITVDKSASTAYMELSSLRSEDTAVYYCTRDDGYYDYYFDVWGQGTTVTVSS VL: DIQMTQSPSSLSASVGDRVTLTCRASQDIGSRLNWLQQKPGGAFKRLIYATSTLDSGVPKRFSGSRSGTDFTLTISSLQPEDFADYYCLQLASSPPTFGGGTKVEIKR | 166 pM | 347 pM |
| Hu303-012 (antibody, human IgG4 S228P, kappa, V domains shown, Humanized mAb303) VH: QVQLVQSGAEVKKPGASVKVSCKASGYTFTDYYMNWVRQAPGQRLEWMGVINPYNGDTAYNQKFKGRVTITVDKSASTAYMELSSLRSEDTAVYYCTRDDGYYDYYFDVWGQGTTVTVSS VL: DIQMTQSPSSLSASVGDRVTITCRASQDIGSRLNWLQQKPGKAFKRLIYATSTLDSGVPKRFSGSRSGTDFTLTISSLQPEDFATYYCLQLASSPPTFGGGTKVEIKR | 164 pM | 361 pM |
| Hu303-017 (antibody, human IgG4 S228P, kappa, V domains shown, Humanized mAb303) VH: QVQLVQSGAEVKKPGASVKVSCKASGYTLTDYYMNWVRQAPGQRLEWMGVINPYNGDTAYNQKFKGRVTITVDKSASTAYMELSSLRSEDTAVYYCTRDDGYYDYYFDVWGQGTTVTVSS VL: DIQMTQSPSSLSASVGDRVTITCRASQDIGSRLNWLQQKPGKAFKRLIYATSTLDSGVPKRFSGSRSGTDFTLTISSLQPEDFATYYCLQLASSPPTFGGGTKVEIKR | 168 pM | 398 pM |
| Hu303-021 (antibody, human IgG4 S228P, kappa, V domains shown, Humanized mAb303) VH: QVQLVQSGAEVKKPGASVKVSCKASGYTLTDYYMNWVRQAPGQRLEWIGVINPYNGDTAYNQKFKGRATLTVDKSASTAYMELSSLRSEDTAVYYCTRDDGYYDYYFDVWGQGTTVTVSS VL: DIQMTQSPSSLSASVGDRVTITCRASQDIGSRLNWYQQKPGKAPKRLIYATSTLDSGVPKRFSGSRSGTDFTLTISSLQPEDFATYYCLQLASSPPTFGGGTKVEIKR | 170 pM | 456 pM |
| Hu303-015 (antibody, human IgG4 S228P, kappa, V domains shown, Humanized mAb303) VH: QVQLVQSGAEVKKPGASVKVSCKASGYTLTDYYMNWVRQAPGQRLEWMGVINPYNGDTAYNQKFKGRVTITVDKSASTAYMELSSLRSEDTAVYYCTRDDGYYDYYFDVWGQGTTVTVSS VL: DIQMTQSPSSLSASVGDRVTITCRASQDIGSRLNWYQQKPGKAPKRLIYATSTLDSGVPSRFSGSRSGTDFTLTISSLQPEDFATYYCLQLASSPPTFGGGTKVEIKR | 172 pM | 398 pM |
| Hu303-020 (antibody, human IgG4 S228P, kappa, V domains shown, Humanized mAb303) VH: QVQLVQSGAEVKKPGASVKVSCKASGYTLTDYYMNWVRQAPGQRLEWIGVINPYNGDTAYNQKFKGRATLTVDKSASTAYMELSSLRSEDTAVYYCTRDDGYYDYYFDVWGQGTTVTVSS VL: DIQMTQSPSSLSASVGDRVTITCRASQDIGSRLNWYQQKPGKAPKRLIYATSTLDSGVPSRFSGSRSGTDFTLTISSLQPEDFATYYCLQLASSPPTFGGGTKVEIKR | 140 pM | 345 pM |
| Hu303-008 (antibody, human IgG4 S228P, kappa, V domains shown, Humanized mAb303) VH: QVQLVQSGAEVKKPGASVKVSCKASGYTFTDYYMNWVRQAPGQRLEWMGVINPYNGDTAYNQKFKGRVTITRDTSASTAYMELSSLRSEDTAVYYCARDDGYYDYYFDVWGQGTTVTVSS VL: DIQMTQSPSSLSASVGDRVTLTCRASQDIGSRLNWLQQKPGGAFKRLIYATSTLDSGVPKRFSGSRSGTDFTLTISSLQPEDFADYYCLQLASSPPTFGGGTKVEIKR | 140 pM | 346 pM |
| Hu303-018 (antibody, human IgG4 S228P, kappa, V domains shown, Humanized mAb303) VH: QVQLVQSGAEVKKPGASVKVSCKASGYTLTDYYMNWVRQAPGQRLEWMGVINPYNGDTAYNQKFKGRVTITVDKSASTAYMELSSLRSEDTAVYYCTRDDGYYDYYFDVWGQGTTVTVSS VL: DIQMTQSPSSLSASVGDRVTLTCRASQDIGSRLNWLQQKPGGAFKRLIYATSTLDSGVPKRFSGSRSGTDFTLTISSLQPEDFADYYCLQLASSPPTFGGGTKVEIKR | 244 pM | 608 pM |
| Hu303-007 (antibody, human IgG4 S228P, kappa, V domains shown, Humanized mAb303) VH: QVQLVQSGAEVKKPGASVKVSCKASGYTFTDYYMNWVRQAPGQRLEWMGVINPYNGDTAYNQKFKGRVTITRDTSASTAYMELSSLRSEDTAVYYCARDDGYYDYYFDVWGQGTTVTVSS VL: DIQMTQSPSSLSASVGDRVTITCRASQDIGSRLNWLQQKPGKAFKRLIYATSTLDSGVPKRFSGSRSGTDFTLTISSLQPEDFATYYCLQLASSPPTFGGGTKVEIKR | 135 pM | 343 pM |
